The target of experiment [1] is Crotalus durissus terrificus (C.d.t.) venom. The experiment can be described thus: ELISA, venom-coated wells; dilution 1:5.
For experiment [2] the target is unchanged. The experiment can be described thus: ELISA, venom-coated wells; dilution 1:25. In general terms: An ELISA detects its analyte on a solid surface through an enzyme-linked reagent.
For experiment [3] the target is unchanged. The experiment can be described thus: ELISA, venom-coated wells; dilution 1:125.
Experiment [4] has the same target. In words: ELISA, venom-coated wells; dilution 1:625.
Experiment [5] has the same target. In words: ELISA, venom-coated wells; dilution 1:3125.
For experiment [6] the target is unchanged. In words: ELISA, venom-coated wells; dilution 1:62,500.
The target is the same in experiment [7]. In words: ELISA, venom-coated wells; dilution 1:312,500.
The target is the same in experiment [8]. The experiment can be described thus: ELISA, venom-coated wells (5 µg/ml); undiluted.
For experiment [9] the target is unchanged. In words: ELISA, venom-coated wells (5 µg/ml); dilution 1:5.
Experiment [10] has the same target. In words: ELISA, venom-coated wells (5 µg/ml); dilution 1:25.
The target is the same in experiment [11]. In words: ELISA, venom-coated wells (5 µg/ml); dilution 1:125.
The target is the same in experiment [12]. The experiment can be described thus: ELISA, venom-coated wells (5 µg/ml); dilution 1:625.
Experiment [13] has the same target. The experiment can be described thus: ELISA, venom-coated wells (5 µg/ml); dilution 1:3125.

One substance from patent US20070269861A1 can be followed below.

“preimmune IgY (PEG preparation from eggs of unimmunized hens) (antibody)”: the absorbance 412 nm is under 0 absorbance in experiment [1]; 0.016 absorbance in experiment [2]; under 0 absorbance in [3]; under 0 absorbance in experiment [4]; under 0 absorbance in experiment [5]; 0.001 absorbance in experiment [6]. In addition, the absorbance 412 nm in experiment [7] was 0.01 absorbance; in [8] it was 0.003 absorbance; in experiment [9], under 0 absorbance; in experiment [10] it was 0 absorbance; in [11], 0.003 absorbance; in [12] it was 0 absorbance. Besides, the absorbance 412 nm in [13] is 0.002 absorbance.
